This series deals with the molecule itself. The series is described as follows: AUC.

B1: mouse E-cadherin EC1-5 ectodomain, wild type (domain or fragment)
chain: DWVIPPISCPENEKGEFPKNLVQIKSNRDKETKVFYSITGQGADKPPVGVFIIERETGWLKVTQPLDREAIAKYILYSHAVSSNGEAVEDPMEIVITVTDQNDNRPEFTQEVFEGSVAEGAVPGTSVMKVSATDADDDVNTYNAAIAYTIVSQDPELPHKNMFTVNRDTGVISVLTSGLDRESYPTYTLVVQAADLQGEGLSTTAKAVITVKDINDNAPVFNPSTYQGQVPENEVNARIATLKVTDDDAPNTPAWKAVYTVVNDPDQQFVVVTDPTTNDGILKTAKGLDFEAKQQYILHVRVENEEPFEGSLVPSTATVTVDVVDVNEAPIFMPAERRVEVPEDFGVGQEITSYTAREPDTFMDQKITYRIWRDTANWLEINPETGAIFTRAEMDREDAEHVKNSTYVALIIATDDGSPIATGTGTLLLVLLDVNDNAPIPEPRNMQFCQRNPQPHIITILDPDLPPNTSPFTAELTHGASVNWTIEYNDAAQESLILQPRKDLEIGEYKIHLKLADNQNKDQVTTLDVHVCDCEGTVNNCMKA
modifications: O-linked glycosylation observed in the structure
In turn, B1 registered a Kd of approximately 100 µM.

What is called Kd is the constant that tells how readily two partners part at equilibrium.
